Laboratory results taken from article PMC11053023, “Mechanism of Ψ-Pro/C-degron recognition by the CRL2^FEM1B ubiquitin ligase” (Nature Communications, 2024).

Target: FEM1B-EB-EC ternary complex (human) (UniProt Q9UK73)
Assay: SEC; peaks of the purified FEM1B-EB-EC complexes (Supplementary Fig. 1g); how the masses were found is not given

Substance: FEM1B-EB-EC ternary complex (from UniProt Q9UK73 1-627; Q15370 1-118; Q15369 17-112)
- stoichiometry N: 2
